Test results reported in patent US20090068207A1, “Compositions Containing Beta 2-Glycoprotein I-Derived Peptides for the Prevention and/or Treatment of Vascular Disease” (Vascular Biogenics Ltd., priority 2005, published 2009).

What was measured:
[1] = system: inguinal lymph node cells; assay: Lymph node cell proliferation (stimulation index) to sensitizing antigen β2GPI after mucosal administration; assay type: in vivo, mice
Experimental: Immunization: Subcutaneous immunization with human β2GPI: Human β2GPI was prepared from human plasma pool as described above. For immunization, human β2GPI was dissolved in PBS and mixed with equal volumes of Freund's incomplete adjuvant. Immunizations were performed by single subcutaneous injection of 10 μg antigen/mouse in 0.1 ml volume. Three days following the last mucosal administration of plaque associated molecules the mice received one immunization, and were sacrificed 10 days post immunization.
Proliferation assays: Mice were exposed to the tested antigen as described for assessment of atherosclerosis, and then immunized (one to three days following the last exposure) subcutaneously with 10 μg β2GPI in 0.1 ml PBS, prepared from purified human β2GPI as described above.
Proliferation was assayed ten days after immunization with the β2GPI as follows: Draining inguinal lymph nodes were prepared by mashing the tissues on 100 mesh screens. Red blood cells were lysed with cold sterile double distilled water (6 ml) for 30 seconds and 2 ml of NaCl 3.5% was added. Incomplete medium was added (10 ml), cells were centrifuged for 7 min at 1,700 rpm, resuspended in RPMI medium and counted in a haemocytometer at 1:20 dilution (10 μl cells+190 μl Trypan Blue). Proliferation was measured by the incorporation of [^3H] Thymidine into DNA in triplicate samples of 100 μl of the packed cells (1×10^6 cells/ml) in a 96 well microtiter plate. […] Thymidine (0.5 μCi/well) was added. After an additional 12-24 hours of incubation the cells were harvested and transferred to glass fiber filters using a cell harvester (Brandel) and counted using β-counter (Lumitron). Proliferation was measured by the incorporation of [^3H] thymidine into DNA during the final 12 h of incubation. The results are expressed as the stimulation index (S.I.): the ratio of the mean radioactivity (cpm) of the antigen to the mean background (cpm) obtained in the absence of the antigen. Standard deviation was always <10% of the mean cpm.
Tolerance induced by mucosal exposure to plaque-associated molecules may be mediated by suppression of specific immune responses to antigenic portions (epitopes) of these plaque associated molecules. Lymphocyte proliferation in response to mucosal (nasal and oral) exposure to human β2GPI was measured in […]. 9 male, 5 week old LDL-RD mice were divided into 3 groups. In group A (n=3) oral tolerance was induced with 100 μg/mouse β2GPI suspended in 0.1 ml PBS, administered by gavage, as described above, every other day for 5 days. In group B (n=3) nasal tolerance was induced with 10 μg/mouse β2GPI suspended in 10 μl PBS, administered intranasally as described above, every other day for 5 days. The mice in group C (n=3) received oral administration of 200 μl PBS every other day for 5 days. Immune reactivity was stimulated in all mice by immunization with human β2GPI as described above in the Materials and Methods section, one day after the last feeding. Ten days after the immunization lymph nodes were collected for assay of proliferation (as expressed in the Stimulation Index SI). All mice were fed normal chow-diet containing 4.5% fat by weight (0.02% cholesterol) and water ad libitum.

[2] = system: atherosclerotic lesions; assay: Immunohistochemistry of atherosclerotic lesions (β2GPI, CD3, Mac-1); assay type: in vivo, mice
Excerpt: Immunohistochemistry of atherosclerotic lesions: Immunohistochemical staining for CD3, macrophages and β2GPI content were done on aortic sinus 5-μm-thick frozen sections. Primary antibodies used for probing were rat anti-mouse CD3, rat anti-mouse Mac-1 and a polyclonal rat anti-mouse β2GPI antibodies (George et al Circulation 2000; 102:1822-7). Slides were developed with the three amino-9-ethylcarbonasole (AEC) substrate. Sections were counterstained with hematoxylin. Spleen sections were used as a positive control. Staining in the absence of 1st or 2nd antibody was used as a negative control. β2GPI presence were evaluated by its occupancy of plaque area by computerized morphometry as described previously for VCAM-1 (George et al, Circ Res. 2000; 86:1203-10).
No effect of oral β2GPI on the number of CD3 positive cells (0-5 cells/plaque in all groups; data not shown) or macrophage (Mac-1 positive) content of the fatty streaks was observed.

[3] = system: lymph node cells; assay: Lymph node cell proliferation (stimulation index) to oxLDL after oral administration; assay type: in vivo, mice
Experimental: Proliferation was measured by the incorporation of [^3H] thymidine into DNA during the final 12 h of incubation. The results were computed as stimulation index: the ratio of the mean cpm of the antigen to the mean background cpm obtained in the absence of the antigen.
[…] Three days after the final administration of peptides, the mice were immunized with OxLDL in incomplete Freund's adjuvant, as described in the Examples above, and lymph node cells assessed for antigen (OxLDL) stimulation of proliferation 10 days later. Proliferation was assessed by incorporation of thymidine, expressed as the Stimulation Index, as described.

[4] = system: lymph node cells; assay: Cytokine secretion by lymph node cells of tolerized mice (ELISA of conditioned medium); assay type: in vivo
Experimental: IFN-γ, IL-4, IL-10 and TGF-β secretion in tolerized lymph nodes: Conditioned medium was obtained from the lymph node proliferation experiments following 48 h of culture in the presence of β2GPI.

[5] = system: anti-β2GPI antibodies and antibody isotypes; assay: Serum antibody levels and isotypes (ELISA); assay type: in vivo, mice; details: oral administration, subsequently immunized with β2GPI; data not shown
Experimental: Detection of anti-b2GPI antibodies and antibody isotypes: β2GPI (10 μg/ml) was coated onto flat bottom 96-well ELISA plates (Nalge-Nunc, Int. Rochester, N.Y.) by overnight incubation and the assay was performed as previously described (George et al, Circulation, 1998; 15:1108-15) IgG, IgA and IgM isotypes in the sera of β2GPI tolerant and non-tolerant mice were determined by an ELISA kit (Southern Biotechnology Associates, Birmingham, Ala., USA) according to the manufacture's instructions.
None of the orally-administered antigens induced production of antiβ2GPI antibodies (data not shown).

[6] = system: LDL receptor deficient mice; details: oral administration, U.S. Ser. No. 09/806,400; cited from earlier work

B1: β2GPI: beta2-glycoprotein I, species not stated at the place (human or bovine; FIG. 7 legend says bovine) (protein, UniProt P17690 20-345, looked up)
Beta-2-glycoprotein 1: GRTCPKPDELPFSTVVPLKRTYEPGEQIVFSCQPGYVSRGGIRRFTCPLTGLWPINTLKCMPRVCPFAGILENGTVRYTTFEYPNTISFSCHTGFYLKGASSAKCTEEGKWSPDLPVCAPITCPPPPIPKFASLSVYKPLAGNNSFYGSKAVFKCLPHHAMFGNDTVTCTEHGNWTQLPECREVRCPFPSRPDNGFVNHPANPVLYYKDTATFGCHETYSLDGPEEVECSKFGNWSAQPSCKASCKLSIKRATVIYEGERVAIQNKFKNGMLHGQKVSFFCKHKEKKCSYTEDAQCIDGTIEIPKCFKEHSSLAFWKTDASDVKPC
reduction of the stimulation index of lymph node cells ([1]; mucosal administration to LDL-RD mice, Examples 3 and 6): up to 70% | suppression of primary cellular response (lymph node cell proliferation) to β2GPI ([1]; oral 5 doses of 500 μg per mouse, stimulation with 2.0 μg/ml β2GPI, LDL-RD mice): > 60% | influence on primary cellular response to BSA ([1]; oral administration, mice immunized with BSA, results not shown): did not influence | content of plaque-expressed β2GPI, mean percent occupancy ([2]; oral 500 μg/dose, LDL-RD mice, data not shown): 15±5% | effect on number of CD3 positive cells or macrophage (Mac-1 positive) content of the fatty streaks ([2]; oral administration, LDL-RD mice): No effect | number of CD3 positive cells ([2]; oral administration, all groups, data not shown): 0-5 cells/plaque | suppression of primary cellular response (lymph node cell proliferation) to oxLDL ([3]; oral 5 doses of 500 μg per mouse, stimulation with 20 μg/ml oxLDL, LDL-RD mice): 74% | reduction in Stimulation Index of OxLDL-sensitized lymph node cells ([3]; oral, 3 doses of 100 μg, LDL-RD mice immunized with OxLDL): 87% | TGF-β levels in the conditioned medium of lymph node cells ([4]; cells from β2GPI-tolerized mice): below the detection threshold | levels of IFN-γ secreted by lymph node cells ([4]; cells from β2GPI-tolerized mice, stimulation with β2GPI, mean value): 1802 ± 588 pg/mL | Levels of IL-4 in medium relative to control animals ([4]; oral administration, immunized with β2GPI, cells incubated 48 h with β2GPI, p<0.01): three times higher | IL-10 secretion relative to BSA-treated controls ([4]; oral administration, immunized with β2GPI, in-vitro priming with β2GPI, p<0.05): 2.6 times | IgM, IgA, or IgG total antibody levels and isotype distribution [5]: did not alter | reduction in atherogenesis by oral tolerance [6]: approximately 30%
